The labels stand for the following.
T1: human calcitonin receptor (human, UniProt P30988 25-474)
T1 construct: whole, on cells; also called hCT-R; hCTR
T1 sequence (looked up): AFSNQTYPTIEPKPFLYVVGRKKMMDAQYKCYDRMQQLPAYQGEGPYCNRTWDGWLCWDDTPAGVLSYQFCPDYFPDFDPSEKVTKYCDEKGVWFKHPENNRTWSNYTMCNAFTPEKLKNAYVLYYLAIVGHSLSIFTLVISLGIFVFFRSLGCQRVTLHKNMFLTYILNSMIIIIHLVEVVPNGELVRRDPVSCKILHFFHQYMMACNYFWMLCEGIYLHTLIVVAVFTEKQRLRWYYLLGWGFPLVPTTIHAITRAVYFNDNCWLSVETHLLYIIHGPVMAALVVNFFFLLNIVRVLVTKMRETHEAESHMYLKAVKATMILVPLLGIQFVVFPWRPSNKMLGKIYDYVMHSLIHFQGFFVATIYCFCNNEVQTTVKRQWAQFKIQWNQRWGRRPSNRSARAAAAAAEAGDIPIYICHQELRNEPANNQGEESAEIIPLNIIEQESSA

B1: [N-terminal(C20 diacid-gGlu), des1, 4G, 9T, 15Q, 21Q, 23Y, 25P, 30S, 31G, 32T, 33Y]mimylin (peptide)
peptide: {C20 diacid-γGlu}-ASGLSTATLGRLSQELHELQTYPPTETGSGTY-NH2
SMILES: CC(C)C[C@H](NC(=O)CNC(=O)[C@H](CO)NC(=O)[C@H](C)NC(=O)CC[C@H](NC(=O)CCCCCCCCCCCCCCCCCCC(=O)O)C(=O)O)C(=O)N[C@@H](CO)C(=O)N[C@H](C(=O)N[C@@H](C)C(=O)N[C@H](C(=O)N[C@@H](CC(C)C)C(=O)NCC(=O)N[C@@H](CCCNC(=N)N)C(=O)N[C@@H](CC(C)C)C(=O)N[C@@H](CO)C(=O)N[C@@H](CCC(N)=O)C(=O)N[C@@H](CCC(=O)O)C(=O)N[C@@H](CC(C)C)C(=O)N[C@@H](Cc1c[nH]cn1)C(=O)N[C@@H](CCC(=O)O)C(=O)N[C@@H](CC(C)C)C(=O)N[C@@H](CCC(N)=O)C(=O)N[C@H](C(=O)N[C@@H](Cc1ccc(O)cc1)C(=O)N1CCC[C@H]1C(=O)N1CCC[C@H]1C(=O)N[C@H](C(=O)N[C@@H](CCC(=O)O)C(=O)N[C@H](C(=O)NCC(=O)N[C@@H](CO)C(=O)NCC(=O)N[C@H](C(=O)N[C@@H](Cc1ccc(O)cc1)C(N)=O)[C@@H](C)O)[C@@H](C)O)[C@@H](C)O)[C@@H](C)O)[C@@H](C)O)[C@@H](C)O
B2: [des1, 4G, 15Q, 21Q, 23Y, 30S, 31K(C20 diacid-gGlu), 32T, 33Y]mimylin (peptide)
peptide: ASGLSTAALGRLSQELHELQTYPRTETGSK([γGlu-C20 diacid])TY-NH2
modifications: N-terminus assumed
SMILES: CC(C)C[C@H](NC(=O)CNC(=O)[C@H](CO)NC(=O)[C@H](C)N)C(=O)N[C@@H](CO)C(=O)N[C@H](C(=O)N[C@@H](C)C(=O)N[C@@H](C)C(=O)N[C@@H](CC(C)C)C(=O)NCC(=O)N[C@@H](CCCNC(=N)N)C(=O)N[C@@H](CC(C)C)C(=O)N[C@@H](CO)C(=O)N[C@@H](CCC(N)=O)C(=O)N[C@@H](CCC(=O)O)C(=O)N[C@@H](CC(C)C)C(=O)N[C@@H](Cc1c[nH]cn1)C(=O)N[C@@H](CCC(=O)O)C(=O)N[C@@H](CC(C)C)C(=O)N[C@@H](CCC(N)=O)C(=O)N[C@H](C(=O)N[C@@H](Cc1ccc(O)cc1)C(=O)N1CCC[C@H]1C(=O)N[C@@H](CCCNC(=N)N)C(=O)N[C@H](C(=O)N[C@@H](CCC(=O)O)C(=O)N[C@H](C(=O)NCC(=O)N[C@@H](CO)C(=O)N[C@@H](CCCCNC(=O)CC[C@H](NC(=O)CCCCCCCCCCCCCCCCCCC(=O)O)C(=O)O)C(=O)N[C@H](C(=O)N[C@@H](Cc1ccc(O)cc1)C(N)=O)[C@@H](C)O)[C@@H](C)O)[C@@H](C)O)[C@@H](C)O)[C@@H](C)O
B3: [N-terminal(C20 diacid-gGlu), des1, 9V, 15Q, 21Q, 23Y, 30S, 31G, 32T, 33Y]mimylin (peptide)
peptide: {C20 diacid-γGlu}-ASELSTAVLGRLSQELHELQTYPRTETGSGTY-NH2
SMILES: CC(C)C[C@H](NC(=O)[C@H](CCCNC(=N)N)NC(=O)CNC(=O)[C@H](CC(C)C)NC(=O)[C@@H](NC(=O)[C@H](C)NC(=O)[C@@H](NC(=O)[C@H](CO)NC(=O)[C@H](CC(C)C)NC(=O)[C@H](CCC(=O)O)NC(=O)[C@H](CO)NC(=O)[C@H](C)NC(=O)CC[C@H](NC(=O)CCCCCCCCCCCCCCCCCCC(=O)O)C(=O)O)[C@@H](C)O)C(C)C)C(=O)N[C@@H](CO)C(=O)N[C@@H](CCC(N)=O)C(=O)N[C@@H](CCC(=O)O)C(=O)N[C@@H](CC(C)C)C(=O)N[C@@H](Cc1c[nH]cn1)C(=O)N[C@@H](CCC(=O)O)C(=O)N[C@@H](CC(C)C)C(=O)N[C@@H](CCC(N)=O)C(=O)N[C@H](C(=O)N[C@@H](Cc1ccc(O)cc1)C(=O)N1CCC[C@H]1C(=O)N[C@@H](CCCNC(=N)N)C(=O)N[C@H](C(=O)N[C@@H](CCC(=O)O)C(=O)N[C@H](C(=O)NCC(=O)N[C@@H](CO)C(=O)NCC(=O)N[C@H](C(=O)N[C@@H](Cc1ccc(O)cc1)C(N)=O)[C@@H](C)O)[C@@H](C)O)[C@@H](C)O)[C@@H](C)O
B4: [N-terminal(C20 diacid-gGlu), des1, 4G, 15Q, 21Q, 23Y, 25H, 30S, 31G, 32T, 33Y]mimylin (peptide)
peptide: {C20 diacid-γGlu}-ASGLSTAALGRLSQELHELQTYPHTETGSGTY-NH2
SMILES: CC(C)C[C@H](NC(=O)CNC(=O)[C@H](CO)NC(=O)[C@H](C)NC(=O)CC[C@H](NC(=O)CCCCCCCCCCCCCCCCCCC(=O)O)C(=O)O)C(=O)N[C@@H](CO)C(=O)N[C@H](C(=O)N[C@@H](C)C(=O)N[C@@H](C)C(=O)N[C@@H](CC(C)C)C(=O)NCC(=O)N[C@@H](CCCNC(=N)N)C(=O)N[C@@H](CC(C)C)C(=O)N[C@@H](CO)C(=O)N[C@@H](CCC(N)=O)C(=O)N[C@@H](CCC(=O)O)C(=O)N[C@@H](CC(C)C)C(=O)N[C@@H](Cc1c[nH]cn1)C(=O)N[C@@H](CCC(=O)O)C(=O)N[C@@H](CC(C)C)C(=O)N[C@@H](CCC(N)=O)C(=O)N[C@H](C(=O)N[C@@H](Cc1ccc(O)cc1)C(=O)N1CCC[C@H]1C(=O)N[C@@H](Cc1c[nH]cn1)C(=O)N[C@H](C(=O)N[C@@H](CCC(=O)O)C(=O)N[C@H](C(=O)NCC(=O)N[C@@H](CO)C(=O)NCC(=O)N[C@H](C(=O)N[C@@H](Cc1ccc(O)cc1)C(N)=O)[C@@H](C)O)[C@@H](C)O)[C@@H](C)O)[C@@H](C)O)[C@@H](C)O
B5: [N-terminal(C20 diacid-gGlu), des1, 4G, 9V, 15Q, 21Q, 23Y, 30S, 31A, 32T, 33Y]mimylin (peptide)
peptide: {C20 diacid-γGlu}-ASGLSTAVLGRLSQELHELQTYPRTETGSATY-NH2
SMILES: CC(C)C[C@H](NC(=O)CNC(=O)[C@H](CO)NC(=O)[C@H](C)NC(=O)CC[C@H](NC(=O)CCCCCCCCCCCCCCCCCCC(=O)O)C(=O)O)C(=O)N[C@@H](CO)C(=O)N[C@H](C(=O)N[C@@H](C)C(=O)N[C@H](C(=O)N[C@@H](CC(C)C)C(=O)NCC(=O)N[C@@H](CCCNC(=N)N)C(=O)N[C@@H](CC(C)C)C(=O)N[C@@H](CO)C(=O)N[C@@H](CCC(N)=O)C(=O)N[C@@H](CCC(=O)O)C(=O)N[C@@H](CC(C)C)C(=O)N[C@@H](Cc1c[nH]cn1)C(=O)N[C@@H](CCC(=O)O)C(=O)N[C@@H](CC(C)C)C(=O)N[C@@H](CCC(N)=O)C(=O)N[C@H](C(=O)N[C@@H](Cc1ccc(O)cc1)C(=O)N1CCC[C@H]1C(=O)N[C@@H](CCCNC(=N)N)C(=O)N[C@H](C(=O)N[C@@H](CCC(=O)O)C(=O)N[C@H](C(=O)NCC(=O)N[C@@H](CO)C(=O)N[C@@H](C)C(=O)N[C@H](C(=O)N[C@@H](Cc1ccc(O)cc1)C(N)=O)[C@@H](C)O)[C@@H](C)O)[C@@H](C)O)[C@@H](C)O)C(C)C)[C@@H](C)O
B6: [N-terminal(C20 diacid-gGlu), des1, 4G, 15T, 21E, 23Y, 30S, 31G, 32T, 33Y]mimylin (peptide)
peptide: {C20 diacid-γGlu}-ASGLSTAALGRLSTELHELETYPRTETGSGTY-NH2
SMILES: CC(C)C[C@H](NC(=O)CNC(=O)[C@H](CO)NC(=O)[C@H](C)NC(=O)CC[C@H](NC(=O)CCCCCCCCCCCCCCCCCCC(=O)O)C(=O)O)C(=O)N[C@@H](CO)C(=O)N[C@H](C(=O)N[C@@H](C)C(=O)N[C@@H](C)C(=O)N[C@@H](CC(C)C)C(=O)NCC(=O)N[C@@H](CCCNC(=N)N)C(=O)N[C@@H](CC(C)C)C(=O)N[C@@H](CO)C(=O)N[C@H](C(=O)N[C@@H](CCC(=O)O)C(=O)N[C@@H](CC(C)C)C(=O)N[C@@H](Cc1c[nH]cn1)C(=O)N[C@@H](CCC(=O)O)C(=O)N[C@@H](CC(C)C)C(=O)N[C@@H](CCC(=O)O)C(=O)N[C@H](C(=O)N[C@@H](Cc1ccc(O)cc1)C(=O)N1CCC[C@H]1C(=O)N[C@@H](CCCNC(=N)N)C(=O)N[C@H](C(=O)N[C@@H](CCC(=O)O)C(=O)N[C@H](C(=O)NCC(=O)N[C@@H](CO)C(=O)NCC(=O)N[C@H](C(=O)N[C@@H](Cc1ccc(O)cc1)C(N)=O)[C@@H](C)O)[C@@H](C)O)[C@@H](C)O)[C@@H](C)O)[C@@H](C)O)[C@@H](C)O
B7: [N-terminal(C20 diacid-gGlu), 4Q, 9V, 15Q, 21Q, 23Y, 27G, 30S, 31G, 32T, 33Y]mimylin (peptide)
peptide: {C20 diacid-γGlu}-EASQLSTAVLGRLSQELHELQTYPRTGTGSGTY-NH2
SMILES: CC(C)C[C@H](NC(=O)[C@H](CCCNC(=N)N)NC(=O)CNC(=O)[C@H](CC(C)C)NC(=O)[C@@H](NC(=O)[C@H](C)NC(=O)[C@@H](NC(=O)[C@H](CO)NC(=O)[C@H](CC(C)C)NC(=O)[C@H](CCC(N)=O)NC(=O)[C@H](CO)NC(=O)[C@H](C)NC(=O)[C@H](CCC(=O)O)NC(=O)CC[C@H](NC(=O)CCCCCCCCCCCCCCCCCCC(=O)O)C(=O)O)[C@@H](C)O)C(C)C)C(=O)N[C@@H](CO)C(=O)N[C@@H](CCC(N)=O)C(=O)N[C@@H](CCC(=O)O)C(=O)N[C@@H](CC(C)C)C(=O)N[C@@H](Cc1c[nH]cn1)C(=O)N[C@@H](CCC(=O)O)C(=O)N[C@@H](CC(C)C)C(=O)N[C@@H](CCC(N)=O)C(=O)N[C@H](C(=O)N[C@@H](Cc1ccc(O)cc1)C(=O)N1CCC[C@H]1C(=O)N[C@@H](CCCNC(=N)N)C(=O)N[C@H](C(=O)NCC(=O)N[C@H](C(=O)NCC(=O)N[C@@H](CO)C(=O)NCC(=O)N[C@H](C(=O)N[C@@H](Cc1ccc(O)cc1)C(N)=O)[C@@H](C)O)[C@@H](C)O)[C@@H](C)O)[C@@H](C)O

Numbered stars: 1 amine (or outer) side, 2 acyl side, 3 side chain; on linkers, the order of the positions; unused ones are H or OH. Side chains are listed from the residue outwards. Ends that are not written are not given here. * marks the point of attachment. C20 diacid = O=C(O)CCCCCCCCCCCCCCCCCCC(=O)*; γGlu = O=C(O)[C@H](CCC(=O)[*:2])N[*:1]

The target in the test is T1, human calcitonin receptor. In words: whole-cell competition vs 125I-human calcitonin (Assay VIIa). The gist of the method:
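BHK tk'ts 13 cells stably co-expressing human calcitonin receptor and a CRE-luciferase reporter, seeded overnight at 37 °C. Bound tracer counted by scintillation after cold HBSS washes and NaOH/SDS lysis; IC₅₀ from one-site competition fit taken as receptor affinity.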
As for B1, the IC50 – broadly, the concentration at which inhibition is half-maximal – is 0.2 nM. On to B2, for which the IC50 came out at 1.27 nM. As to B3, the IC50 amounted to 0.326 nM. Turning to B4, the IC50 came out at 0.45 nM. With B5, the IC50 came out at 0.318 nM.

Turning to B6, the IC50 turned out to be 0.547 nM. On to {C20 diacid-γGlu}-ASGLSTATLGRLSQELHELQTYPRTETGSGTY-NH2 [[N-terminal(C20 diacid-gGlu), des1, 4G, 9T, 15Q, 21Q, 23Y, 30S, 31G, 32T, 33Y]mimylin], for which the IC50 was 0.312 nM. In the case of LSGLSTAVLGRLSQELHELQTYPRTETGSQTY-NH2 (backbone without side chain) [[des1, 2L, 4G, 9V, 15Q, 21Q, 23Y, 30S, 31Q, 32T, 33Y]mimylin] it was 0.959 nM; in that of B7, 0.796 nM.
